Results from paper PMC2199947.

Target: receptor-type protein tyrosine phosphatase PTPmu (endogenous, MvLu mink lung cells) (mink (endogenous in MvLu))
Test: co-IP

| percent of the cadherin cleared from the lysate by immunoprecipitation of PTPmu | Substance |
| --- | --- |
| 80% | 116-kD cadherin of MvLu cells (natural protein) |
| 80% | 130-kD cadherin of MvLu cells (natural protein) |
